Laboratory results as given in publication PMC8967877 (2022).
Square brackets hold non-standard residues; d marks the D form. Ends that are not written are not given here. pT = C[C@@H](OP(=O)(O)O)[C@H](N)C(=O)O

Legend:
Assay in all cases: FP
[1] = molecular target: Polynucleotide Kinase-Phosphatase (PNKP), human, wild-type (human, UniProt Q96T60-1 1-521)
[2] = molecular target: P101L PNKP (human) (human, UniProt Q96T60-1 1-521, P101L)
[3] = molecular target: wild-type murine PNKP (murine, UniProt Q9JLV6 1-522)
Chain of wild-type murine PNKP (Q9JLV6 whole entry): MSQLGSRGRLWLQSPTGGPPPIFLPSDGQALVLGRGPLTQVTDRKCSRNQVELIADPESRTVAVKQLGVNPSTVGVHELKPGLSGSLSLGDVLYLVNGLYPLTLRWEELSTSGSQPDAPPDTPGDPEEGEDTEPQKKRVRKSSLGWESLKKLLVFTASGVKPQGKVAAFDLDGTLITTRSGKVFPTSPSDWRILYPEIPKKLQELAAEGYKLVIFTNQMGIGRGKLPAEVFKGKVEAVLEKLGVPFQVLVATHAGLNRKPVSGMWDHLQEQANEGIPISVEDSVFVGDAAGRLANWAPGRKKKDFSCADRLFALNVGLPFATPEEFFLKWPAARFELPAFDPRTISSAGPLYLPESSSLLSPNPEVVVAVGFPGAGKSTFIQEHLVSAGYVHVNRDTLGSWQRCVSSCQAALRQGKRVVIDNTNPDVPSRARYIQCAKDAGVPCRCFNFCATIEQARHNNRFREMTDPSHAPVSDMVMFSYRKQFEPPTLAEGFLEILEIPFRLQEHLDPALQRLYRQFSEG

For GGYDES[pT]DEESKK (also: fluorescent dye label, position not given here) [fluorescent-dye labeled XRCC4-based phosphopeptide (GGYDES-pT-DEESKK)], which Kd [1] is on record?
The Kd was 1080 nM.

And the Kd [2]?
Its Kd is greater than 21000 nM.

And the Kd [3]?
Its Kd is 760 nM.
